{"source": "patent US11433139B2", "about": "“Peptide vaccines against interleukin-31” (Zoetis Services LLC, priority 2018, dated 2022)", "key": {"[1]": {"tested_on": "feline IL-31 11E12 mutant", "sequence (as listed by the source, change not shown)": "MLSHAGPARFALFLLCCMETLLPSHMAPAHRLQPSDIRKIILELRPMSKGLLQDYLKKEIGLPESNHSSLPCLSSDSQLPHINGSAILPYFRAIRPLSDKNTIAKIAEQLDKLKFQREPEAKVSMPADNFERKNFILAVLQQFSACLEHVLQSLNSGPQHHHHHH", "assay": "Indirect ELISA, binding to feline IL-31 11E12 mutant", "details": "compared with wildtype", "text": "To determine the impact of mAbs 11E12 and 15H05 ability to bind these mutant forms of feline IL-31, an indirect ELISA was run using the mutants directly coated on to an immunoassay plate. […] The minor attenuation of mAb 15H05s binding to the 11E12 mutant is likely due to translational effects of the mutations from movement of the two front helices effecting the 15H05 binding site. The mutations designed to affect mAb 15H05s binding (mutant 15H05) show a complete loss of mAb 1505s ability to bind this IL-31 mutant by ELISA. Unlike the 11E12 mutant, the changes in the random coil recognized by mAb 15H05 (mutant 15H05) had no impact on mAb 11E12 binding further supporting the distinction between the two epitopes (FIG. 6C)."}, "[2]": {"tested_on": "feline 11E12 mutant IL-31", "assay": "Biacore binding, single test concentration of antibody, feline 11E12 mutant IL-31 surface", "protocol": "(§1) For the indirect ELISA, binding (ELISA OD) to wildtype feline IL-31 and a feline IL-31 15H05 mutant which had mutations in the monoclonal antibody 15H05 epitope region was assessed. To confirm binding, biacore analysis was performed using canine, feline, equine, human, the feline 15H05 mutant, and feline 11E12 mutant IL-31 proteins as surfaces and a single test concentration of antibody. The feline IL-31 11E12 mutant had mutations in the monoclonal antibody 11E12 epitope region.\n(§2) For the indirect ELISA method, antibody binding to wildtype and feline IL-31 15H05 mutant proteins was assessed. […] In comparison, the 11E12 antibody bound to the wild-type feline IL-31 and its binding was not impacted by the mutations in the 15H05 epitope region as evidenced by the data in FIG. 4. To confirm binding, biacore analysis was performed using canine, feline, equine, human, feline 15H05 mutant, and feline 11E12 mutant IL-31 proteins as surfaces and a single test concentration of antibody. Similar to ELISA observations, all antibodies tested bound to wildtype feline IL-31. In agreement with the data described above in this section, mouse antibodies 11 E12 and 15H05 both bound to canine and feline IL-31 surfaces. […] From this group of nine fully canine antibodies, only ZIL1 and ZIL9 cross-reacted with equine IL-31. Of note, antibody 15H05 was the only one of all assayed herein that bound to canine, feline, and equine IL-31 indicating some level of epitope conservation across the three species. In contrast, none of the antibodies described herein bound to human IL-31. Additional biacore surfaces were used to verify ELISA observations showing differential binding of antibodies to wildtype feline IL-31 and two proteins with mutations in the 15H05 (15H05 mutant) or 11 E12 (11E12 mutant) epitopes. […] Differing results can be attributed to differences in the two assay methodologies."}, "[3]": {"tested_on": "wildtype feline IL-31", "sequence (as listed by the source)": "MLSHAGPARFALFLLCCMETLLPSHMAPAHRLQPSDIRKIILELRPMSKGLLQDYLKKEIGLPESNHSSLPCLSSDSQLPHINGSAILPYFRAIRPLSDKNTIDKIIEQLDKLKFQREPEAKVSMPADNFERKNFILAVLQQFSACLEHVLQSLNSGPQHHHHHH", "assay": "Biacore binding, single test concentration of antibody, feline IL-31 surface", "protocol": "as §1\nFor the indirect ELISA method, antibody binding to wildtype and feline IL-31 15H05 mutant proteins was assessed. […] In comparison, the 11E12 antibody bound to the wild-type feline IL-31 and its binding was not impacted by the mutations in the 15H05 epitope region as evidenced by the data in FIG. 4. To confirm binding, biacore analysis was performed using canine, feline, equine, human, feline 15H05 mutant, and feline 11E12 mutant IL-31 proteins as surfaces and a single test concentration of antibody. Similar to ELISA observations, all antibodies tested bound to wildtype feline IL-31. In agreement with the data described above in this section, mouse antibodies 11 E12 and 15H05 both bound to canine and feline IL-31 surfaces. […] From this group of nine fully canine antibodies, only ZIL1 and ZIL9 cross-reacted with equine IL-31. […]"}, "[4]": {"tested_on": "feline 15H05 mutant IL-31", "assay": "Biacore binding, single test concentration of antibody, feline 15H05 mutant IL-31 surface", "protocol": "as §1, §2"}, "[5]": {"tested_on": "feline IL-31 15H05 mutant", "sequence (as listed by the source, change not shown)": "as the sequence (as listed by the source) above, with P126A, D128A counted along it", "assay": "Indirect ELISA, binding to feline IL-31 15H05 mutant", "details": "compared with wildtype", "how_it_was_run": "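Wildtype or 15H05-epitope-mutant feline IL-31 coated directly onto plates as capture antigen (50 ng/well). Antibodies diluted in PBST, bound antibody detected with HRP-labelled secondary and TMB for 10 min at RT. Reaction stopped with 0.1 N HCl, then OD read at 450 nm.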"}}, "data": [{"molecule": "15H05: mouse anti IL-31 monoclonal antibody, VH SEQ ID NO: 67, VL SEQ ID NO: 69 (antibody, listed as Mus musculus, V domains shown) VH: QVQLQQSAAELARPGASVKMSCKTSGYTFTSYTIHWIKQRPGQGLEWIGNINPTSGYTENNQRFKDKTTLTVDRSSNTAYLQLHSLTSEDSAVYFCARWGFKYDGEWSFDVWGAGTTVTVSS VL: DIQMNQSPSSLSASLGDTITVTCRASQGISIWLSWYQQKPGNIPKVLINKASNLHIGVPPRFSGSGSGTHFTLTITSLQPEDIATYYCLQSQTYPLTFGGGTKLEIN", "values": [{"measurement": "binding to feline IL-31 11E12 mutant (ELISA)", "setting": "[1]", "value": "partially attenuated"}, {"measurement": "binding to feline 11E12 mutant IL-31 (Biacore)", "setting": "[2]", "value": "retained binding"}, {"measurement": "binding to wildtype feline IL-31 (Biacore)", "setting": "[3]", "value": "bound"}, {"measurement": "binding to feline 15H05 mutant IL-31 (Biacore)", "setting": "[4]", "value": "did not bind"}, {"measurement": "binding to feline IL-31 15H05 mutant (ELISA)", "setting": "[5]", "value": "complete loss"}]}]}
